Measured values published in article PMC9302186, “Defining variant-resistant epitopes targeted by SARS-CoV-2 antibodies: A global consortium study” (Science (New York, N.y.), 2021).

Molecular target: T1, SARS-CoV-2 spike receptor binding domain, monomeric (SARS-CoV-2, UniProt P0DTC2)
T1 construct: also called RBD; monomeric RBD
Experiment: SPR
Settings: both partners purified

B1: CoVIC-259 (antibody, V domains shown)
VH: EVQLVESGGGVVQPGRSLRLSCAASGFTFSSYAMHWVRQAPGKGLEWVAVLSYDGSNKYNADSVKGRFTISRDNSKNTLYLQMNSLRVEDTAMYYCARDGVSVTMVRGVIGPLCDYWGQGTLVTVSS
VL: not shown
notes: also called RBD-1 community representative
- binding result: binds
